Reference: patent publication US20150190490A1 (ONCOTHERAPY SCIENCE, published 2015)

How the values were obtained:
[1] = target: T1, HLA-DR4 (DRB1*04:05) (human); experiment: concluded from IFN-gamma ELISPOT restriction analysis (peptide-pulsed L-DR4 cells, blocking mAbs)
T1 construct: whole, on cells; MHC class II molecule on mouse L-cell transfectants (L-DR4), donor PBMCs or DCs; also called L-DR4; L-DR0405
Description: (§1) On day 5, the DCs were cultured in the presence of the recombinant CDCA1 (50 micro g/ml) and OK432. The protein-loaded mature DCs were harvested on day 7, washed and used as stimulator in IFN-gamma ELISPOT assays. To determine restriction HLA molecules involved in antigen presentation, blocking of antigen-induced IFN-gamma production was investigated by adding anti-HLA-DR mAb (L243, Biolegend), anti-HLA-DP mAb, (B7/21, abcam), anti-human HLA-DQ mAb (SPV-L3, abcam), or anti-HLA class I mAb, (W6/32, abcam). All mAbs were used at a final concentration of 5 micro g/ml. All assessments of IFN-gamma ELISPOT assays were carried out in duplicate or triplicate, and results corresponded to mean values.
(§2) The immune responses of T-cells to PBMC, L-cells, and murine BM-DC pulsed with peptides (10 micro g/mL) or CDCA1 proteins-loaded human DCs (50 micro g/mL) were assessed by IFN-gamma ELISPOT assays (BD Biosciences, San Jose, Calif.) according to manufacturer's instructions and described previously (Zarour H M et al., Cancer Res 2000; 60:4946-52.). In briefly, peptide-pulsed PBMCs (3×10⁴/well), L-cells (5×10⁴/well), T2 cells (2×10⁴/well), C1R-A24 cells (2×10⁴/well), bone marrow-derived DCs (BM-DCs, 2×10⁴/well), or protein-loaded DCs (5×10³/well) were seeded in triplicate or duplicate in the ELISPOT plates as APCs or target cells. […] After incubation for 18 h, spot numbers were counted. […]

[2] = target: T2, HLA-DR15 (DRB1*15:02) (human); experiment: concluded from IFN-gamma ELISPOT restriction analysis (peptide-pulsed L-DR15 cells, blocking mAbs)
T2 construct: whole, on cells; MHC class II molecule on mouse L-cell transfectants (L-DR15) or donor PBMCs; also called L-DR15
Description: as §1, §2

B1: CDCA1 (55-78) long peptide (peptide)
peptide: IVYGIRLEHFYMMPVNSEVMYPHL
notes: Synthetic long peptide (purity >90%), pulsed onto antigen presenting cells; also called CDCA1 (55-78) LP; CDCA1 (55-78)-LP
binding result [1]: binds | binding result [2]: binds
